From US11673916B2, “Neuroprotective peptides and methods of their use” (University of Pittsburgh—Of the Commonwealth System of …, priority 2020, dated 2023)

Tests used:
[1] = molecular target: T1, VAPA (Rattus norvegicus, UniProt Q9Z270); assay: Peptide spot array (far western) of binding to VAPA, cell-free; settings: lysate of VAPA-transfected HEK293 cells (FIG. 11A)
T1 construct: pEGFP-N1-VAPA; 1-242 (Addgene #18874); host or cells: HEK293 cells; whole lysate at 1 mg/ml total protein overlaid on the peptide arrays
T1 sequence (Q9Z270 8-249): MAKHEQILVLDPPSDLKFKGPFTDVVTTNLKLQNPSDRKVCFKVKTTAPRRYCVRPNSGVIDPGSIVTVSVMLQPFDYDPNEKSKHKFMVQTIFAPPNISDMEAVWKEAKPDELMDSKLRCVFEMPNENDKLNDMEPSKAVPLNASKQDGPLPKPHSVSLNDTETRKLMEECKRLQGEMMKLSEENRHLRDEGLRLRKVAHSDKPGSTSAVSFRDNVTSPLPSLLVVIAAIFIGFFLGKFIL
Method: Standard 9-fluorenylmethoxy carbonyl chemistry was used to synthesize peptides and spot them onto Celluspots nitrocellulose disks prederivatized with a polyethylene glycerol spacer (Intavis), using the Respep peptide synthesizer. The peptides were spotted on 20 membranes fitted on microscope glass slides (Intavis) using an Intavis MultiPep robot. For hybridization and immunoblotting of arrays, Celluspots slides were washed in TBST (50 mM Tris-HCl, pH 7.4, 150 mM NaCl, 0.1% Tween 20) for 10 minutes, […] blocked for 1 hour at room temperature (RT) with gentle shaking in TBST containing 5% nonfat dry milk. Lysates from HEK293 cells transfected as before (Yeh et al., J Neurosci. 37: 5648-5658, 2017; Yeh et al., Proc Natl Acad Sci USA. 116: 15696-15607, 2019; Dustrude et al., Proc Natl Acad Sci USA. 113: E8443-E8452, 2016) with pEGFP-N1-VAPA; 1-242 (Addgene #18874) were made in 20 mM Tris, 50 mM NaCl, 2 mM MgCl2, 1% Tergitol, 0.5% sodium deoxycholate, 0.1% sodium dodecyl sulfate with protease (Cat #B14002, Bimake), phosphatase (Cat #B15002, Bimake) inhibitor cocktails and 5 U/ml of universal nuclease (Cat #88702, Thermofisher) added extemporaneously. The concentration of lysates was measured by BCA (Cat #23227, Thermofisher) and peptide arrays were incubated with 1 mg/ml of total protein overnight at 4° C. (Yeh et al., J Neurosci. 37: 5648-5658, 2017; Yeh et al., Proc Natl Acad Sci USA. 116: 15696-15607, 2019; Moutal et al., Pain. 158: 2203-2221, 2017). Peptide arrays were washed 3 times for 5 minutes at RT with TBST and incubated with the primary antibody anti-VAPA (RRID AB_2722707; UC Davis/NIH NeuroMab Facility) for 2 hours at RT with gentle shaking in TBST, 5% BSA. After washing with TBST, the membranes were incubated in secondary antibody (IRDye® 800CW goat anti-mouse IgG secondary antibody; RRID AB_621842; Li-Cor) for 45 minutes, washed 3 times for 5 minutes in TBST, and visualized by infrared fluorescence (Li-Cor). Four independent peptide spot arrays were used in this study. Fluorescence intensity was analyzed with Image studio (Li-Cor).
Kv2.1 and Kv2.2 channels are recruited to ER-PM junctions via C-terminal PRC-mediated interaction with vesicle-associated membrane protein (VAMP)-associated protein A/B (VAPA/B) (Kirmiz, et al., J Neurosci. 38: 7562-7584, 2018; Johnson et al., Proc Natl Acad Sci USA. 115: E7331-E7340, 2018; Johnson, et al., Channels (Austin). 13: 88-101, 2019). This process occurs at non-canonical FFAT binding motifs within the PRC domains of Kv2.1 and Kv2.2 (FIG. 7B), which are recruited to the FFAT binding domain on VAPA/B (Kirmiz, et al., J Neurosci. 38: 7562-7584, 2018; Johnson et al., Proc Natl Acad Sci USA. 115: E7331-E7340, 2018; Johnson, et al., Channels (Austin). 13: 88-101, 2019). […]

[2] = molecular target: T2, Kv2.1 surface clusters (Rattus norvegicus, UniProt P15387); assay: Kv2.1 surface cluster density in live Kv2.1-GFP-transfected cortical neurons treated with TAT-linked peptides; assay type: cell-based; settings: 10 μM
T2 construct: expressed in transfected cells; host or cells: primary rat cortical neurons (E16-17 Sprague-Dawley), Lipofectamine 2000
T2 sequence (P15387 1-857): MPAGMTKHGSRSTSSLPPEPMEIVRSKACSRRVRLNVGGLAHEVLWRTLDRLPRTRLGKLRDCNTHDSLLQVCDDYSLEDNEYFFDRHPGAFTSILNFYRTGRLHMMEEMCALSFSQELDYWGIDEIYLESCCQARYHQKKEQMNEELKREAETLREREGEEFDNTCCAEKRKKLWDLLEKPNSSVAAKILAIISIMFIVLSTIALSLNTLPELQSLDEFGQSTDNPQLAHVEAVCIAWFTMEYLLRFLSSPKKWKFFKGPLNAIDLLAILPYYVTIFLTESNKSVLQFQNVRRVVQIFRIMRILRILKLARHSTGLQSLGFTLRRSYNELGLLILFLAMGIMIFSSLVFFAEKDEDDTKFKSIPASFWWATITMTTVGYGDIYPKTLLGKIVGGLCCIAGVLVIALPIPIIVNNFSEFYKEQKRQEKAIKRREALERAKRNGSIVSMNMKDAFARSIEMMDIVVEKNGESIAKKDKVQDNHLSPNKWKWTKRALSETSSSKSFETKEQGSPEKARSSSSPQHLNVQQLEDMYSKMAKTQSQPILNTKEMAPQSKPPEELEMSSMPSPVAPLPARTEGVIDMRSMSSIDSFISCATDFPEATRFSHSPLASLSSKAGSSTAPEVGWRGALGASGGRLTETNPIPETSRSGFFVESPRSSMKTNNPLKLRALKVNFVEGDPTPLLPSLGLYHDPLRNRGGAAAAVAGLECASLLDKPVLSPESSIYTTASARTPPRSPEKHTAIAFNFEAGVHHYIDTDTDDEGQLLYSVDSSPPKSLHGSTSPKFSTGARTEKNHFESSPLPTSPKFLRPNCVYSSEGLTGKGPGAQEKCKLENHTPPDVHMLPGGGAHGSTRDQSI
Method: In vitro experiments utilized primary cortical neuronal cultures prepared from embryonic day 16-17 Sprague-Dawley rats of either sex in a protocol described previously (McCord et al., J Physiol (Lond). 592: 3511-3521, 2014). Timed-pregnant rats (Charles River Laboratories, Wilmington, Mass.) were sacrificed by CO2 inhalation. Embryonic cortices were dissociated with trypsin (0.6 mg/mL) and cells plated in sterile 6-well plates on poly-L-ornithine-coated glass coverslips at a density of 670,000 cells per well. Cytosine arabinoside (1-2 μM) was utilized to inhibit non-neuronal proliferation on day 14 in vitro (DIV); cultures were utilized at 21-25 DIV.
; Invitrogen, Carlsbad, Calif.). […]; Thermo Fisher Scientific, Waltham, Mass.). […]. Cultures were utilized 18-24 hours following transfection. cDNA amounts for each transfection experiment are described below for each figure. FIG. 1: 0.375 μg/well Kv2.1-GFP plasmid, 0.495 μg/well pcDNA3 vector plasmid, and 0.63 μg/well of either DP-1 or Sc-1, or Kv2.2 CT-expressing plasmid. FIGS. 2, 8, 9, 10, 12: 0.375 μg/well Kv2.1-GFP plasmid, 0.15 μg/well tdTomato plasmid (from Gerhart Ryffel; Addgene plasmid #30530), and 0.975 μg/well pcDNA3 vector plasmid.
To analyze Kv2.1 distribution in live primary cortical neurons, cells were transfected with both a tdTomato construct and a GFP-tagged Kv2.1 construct (O'Connell, et al., J Neurosci. 26: 9609-9618, 2006) and imaged on a Nikon A1+ confocal microscope (Nikon, Tokyo, Japan). Cells were chosen at random by looking only at the tdTomato signal (561 nm), in order to avoid bias. At least three separate culture dates were used per experiment and three coverslips were transfected per condition each time. For these experiments, “n” refers to the total number of cells imaged. Five to 15 optical sections (0.5 μm) capturing the cell surface were obtained of single cells at 60× magnification (Schulien et al., J Physiol (Lond). 594: 2647-2659, 2016), creating a maximum-intensity projection (MAX-IP) of Kv2.1-GFP distribution. To analyze Kv2.1 distribution in the cerebral cortex of fixed brain slices, 51-54 image fields were obtained at 60× magnification across 18 sections from three fixed mouse brains per treatment (total of 6 animals). Image fields were captured by first focusing on an area of superficial cortex closest to the cover glass. Next, 24 optical sections (0.5 μm) were obtained moving deeper into the tissue in order to produce a 12 μm maximum-intensity projection for analysis of Kv2.1 distribution. Laser power, HV (gain), offset, pinhole size, and all camera parameters were kept identical between all samples in a given experiment. Nikon Instruments Software Advanced Research (NIS-Elements AR) was utilized to analyze GFP-tagged Kv2.1 channel cluster distribution. For live images of transfected neurons, object count parameters were customized to define a Kv2.1 cluster as an area of high intensity GFP fluorescence (compared to background), measuring 0.05 μm^2 or larger (Schulien et al., J Physiol (Lond). 594: 2647-2659, 2016). Kv2.1 cluster density was calculated by normalizing the number of Kv2.1 clusters counted to the somatic area of each neuron (#Kv2.1 clusters/μm^2). Due to high variability in GFP-Kv2.1 expression between individual neurons, intensity thresholding required cell-specific local-background subtraction. In each neuron analyzed, two populations on Kv2.1-GFP expression were first noted—(a) highly localized signals of clustered Kv2.1 channels, and (b) diffuse background staining that represents freely-dispersed, conducting Kv2.1 channels on the plasma membrane. A small region of interest (ROI) within region (b) was set as the background subtraction standard of the image, creating an optimal signal-to-noise ratio for clustered Kv2.1 channels. […]

[3] = 2 hour treatment, mean±SEM (FIG. 11B)
[4] = 24 hour treatment, mean±SEM (FIG. 11C)

Substance | binding to VAPA in peptide spot array [1] | mean Kv2.1 surface cluster density [2, 3] | mean Kv2.1 surface cluster density [2, 4]
EFFDAPE [positive control peptide, a canonical FFAT motif] | strong VAPA binding |  | 
SFISCAT [non-canonical FFAT motif of Kv2.1] | no binding |  | 
SFTSCAT [non-canonical FFAT motif of Kv2.2] | no binding |  | 
SIDSFTS [DP-2, seven amino acid declustering peptide from Kv2.2 CT] | no binding |  | 
YGRKKRRQRRRDEEFAP [TAT-FFATSc, scramble control peptide of TAT-FFAT] |  | 0.14±0.02 #Kv2.1 clusters/μm^2 of neuronal soma | 0.20±0.01 #Kv2.1 clusters/μm^2 of neuronal soma
YGRKKRRQRRREFFDAPE [TAT-FFAT, TAT-linked derivative of the canonical FFAT motif] |  | 0.15±0.03 #Kv2.1 clusters/μm^2 of neuronal soma | 0.19±0.02 #Kv2.1 clusters/μm^2 of neuronal soma
